B5: synthetic gp41 peptide (residues 596-606) with C-terminal amidation (peptide)
chain: WGCSGKLICTT-NH2
modifications: ends and bridges not checked

Experiment in all cases: SPR
A general note: SPR reads the build-up and loss of mass on a sensor chip optically.

Test [1] addresses monomeric full length single chain (FLSC), a covalent dimer of gp120BaL and CD4 (HIV-1 BaL | , UniProt P01730).
In test [2] the target is T1, V2 peptide corresponding to the clade A/E 92TH023 gp120 V2 loop sequence (residues 167-184) (HIV-1 clade A/E 92TH023).
The target in test [3] is T1, V2 peptide corresponding to the clade …. This is another data set of the same source.
The target of test [4] is 7B2.
Test [5] concerns the target B5.
Test [6] has as its target B5.

No end group written: not given here.

As usually defined, the Kd is the concentration at which binding is half-saturated. The low end stands for higher affinity, the high end for lower affinity. In general, koff refers to the first-order rate constant of dissociation.

B1: RM JR4 IgG1 (antibody, V domains shown)
VH: EVQLVESGPGLVKPLETLSLTCAVPGGSIRRNYWSWIRQPPGKGLEWIGHSYGSGGSTNYNPSLESRVTLSVDTSKNLFSLKLTSVTAADTAVYYCARTVWYYTSGTHYFDHWGQGVLVTVSS
VL: QSVLTQPPSVSAAPGQKVTISCSGSSSNIGRSYVSWYQQVPGAAPKLLIYDTNKRPSGVSDRFSGSKSGSSASLAITGLQTGDEADYYCGAWDGSLNVHIFGSGTKLTVL
For the molecule B1, in test [1], the Kd is 0.85 nM and the koff turned out to be 0.00013 s⁻¹.

B2: DH827 (human IgG1) (antibody, V domains shown)
VH: EVQLVESGGGVVQPGRSLRLSCAASGFTFSNCAMHWVRQAPGKGLEWVAVISYHGSNKYYADYVKGRFTISRDNSKSTVYLQMNSPRAEDTAVYYCAKEGGAPSGWALDYWGQGTLVTVSS
VL: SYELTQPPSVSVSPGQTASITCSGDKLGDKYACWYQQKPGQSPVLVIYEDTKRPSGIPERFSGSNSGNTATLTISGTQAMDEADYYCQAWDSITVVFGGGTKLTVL
Molecule B2 registered a Kd in test [2] of 3800 nM. In test [3], this molecule came in with a koff of 0.0069 s⁻¹.

B3: DH677.3 (human IgG1) (antibody, V domains shown)
VH: QVQLVQSGAEVQKPGASVKVSCKASGYTFASYDINWVRQATGQGLEWMGWMNPKTGNTGYAQKFQGRVTLTRNTSISTAYMELTSLRSEDTAVYYCATYRIIAAVGYRYFQYWGQGTLVTVSS
VL: DIQLTQSPSSLSASVGDSVTITCRASQGFGNYLAWYQQRPGKVPEVLIYAATTLQSGVPSRFSGSGSGTDFTLTISSLQPEDVATYYCQKYNSAPFTFGQGTRLEIK
In test [1], B3 came in with a Kd of 0.29 nM and a koff of 4.05e-05 s⁻¹.

B4: RhDH677.3 IgG1 (antibody, V domains shown)
VH: QVQLVQSGAEVKKPGASVKLSCKASGYTFTSYDINWVRQAPGQGLEWMGWMNPKTGNTGYAQKFQGRVTMTRDTSTSTAYMELSSLRSEDTAVYYCATYRIIAAVGYRYFQYWGQGALVTVSS
VL: AIQMTQSPSSLSASVGDKVTITCRASQGFGNYLAWYQQKPGKVPKLLIYAATTLQSEVPSRFSGSGSGTDFTLTISSLQPEDVATYYCQKYNSAPFTFGQGTRLEIK
On to B4, for which, in test [1], binding was characterised by a dissociation constant (Kd) of 2.54 nM and the koff amounted to 0.000189 s⁻¹.
Consider B5, for which, in test [4], binding was characterised by a dissociation constant (Kd) of 634 nM and the koff came to 0.000654 s⁻¹.

B6: RhDH827 IgG1 (antibody, V domains shown)
VH: EVQLVESGGGLVQPGGSLRLSCAASGFTFSNCAMHWVRQAPGKGLEWVAVISYHGSNKYYADYVKGRFTISRDNSKNMLYLQMNNLKLEDTAVYYCAREGGAPSGWALDYWGQGVLVTVSS
VL: SYELTQSPSVSVSPGQPASITCSGDKLGDKYACWYQQKPGQVPVLVIYEDTKRPSGIPERFSGSNSGNTATLTISGVEAGDEADYYCQAWDSITHVVFGGGTRLTVL
B6 had a Kd in test [2] of 2730 nM. The koff in test [3] worked out at 0.000486 s⁻¹.

B7: Rh7B2 IgG1 (antibody, V domains shown)
VH: EVQLVESGGGLVQPGGSLRLSCAASGFTFTEYYMSWVRQAPGKGLEWVSYISKNGEYSYYADSVKGRFTISRDNAKNSLSLQMSSLRAEDTAVYYCTRADGLTYFSELLQYIFDLWGQGVLVTVSS
VL: DIVMTQSPDSLAVSLGERVTINCKSSQTLLYSSNNRHSIAWYQQKPGQAPKLLIYWASMRLSGVPNRFSGSGSGTDFTLTISGLQAEDVAVYYCHQYSSHPPTFGQGTKVEIK
In the case of B7, the Kd in test [5] came to 583 nM. This molecule gave a dissociation rate constant (koff) in test [6] of 0.000534 s⁻¹.

Values taken from paper PMC8770954 (2021).
